Four molecules from patent publication US20260193348A1 (ANTENGENE BIOLOGICS, published 2026) can be followed below.

Assay [1] concerns the target T1, GPRC5D (G-protein coupled receptor family C group 5 member D), human, on multiple myeloma cell lines (human, UniProt Q9NZD1 1-345). The assay can be described thus: cell-based or functional assay.
Assay [2] has as its target T1, GPRC5D (G-protein coupled receptor …). The assay can be described thus: cell-based or functional assay. The source holds these as a separate data set.
Assay [3] deals with T2, CD3 (Cluster of Differentiation 3 protein), human, on T cells / Jurkat cells (human, UniProt P07766 23-207; P04234 22-171; P09693 23-182).
T2 construct: whole, on cells; part of the TCR-CD3 complex; also called human CD3
The assay can be described thus: FACS, Jurkat cells, antibody at 50 µg/ml. The procedure: The binding affinities of the generated humanized Fab-scFv-Fab bispecific antibodies were determined by FACS analysis. […] (a) Jurkat cells were washed by Staining Buffer (PBS+1% BSA) in round bottom 96-well plate. [0833] (b) Antibody dilutions and cells were added to each well, incubated at 4 degrees for 1 hour. [0834] (c) Cells were spined down at 300 g for 3 minutes, and the supernatants were discarded. [0835] (d) Cells were washed with Staining Buffer. […] (e) Step (d) was repeated and the cells were incubated for 0.5 hours at 4 degrees with secondary antibody in Staining Buffer. [0837] (f) After incubation, step (d)-(e) were repeated. […] (g) Staining Buffer was added and fluorescence signals were recorded by flow cytometry.

T1 sequence (Q9NZD1 whole entry): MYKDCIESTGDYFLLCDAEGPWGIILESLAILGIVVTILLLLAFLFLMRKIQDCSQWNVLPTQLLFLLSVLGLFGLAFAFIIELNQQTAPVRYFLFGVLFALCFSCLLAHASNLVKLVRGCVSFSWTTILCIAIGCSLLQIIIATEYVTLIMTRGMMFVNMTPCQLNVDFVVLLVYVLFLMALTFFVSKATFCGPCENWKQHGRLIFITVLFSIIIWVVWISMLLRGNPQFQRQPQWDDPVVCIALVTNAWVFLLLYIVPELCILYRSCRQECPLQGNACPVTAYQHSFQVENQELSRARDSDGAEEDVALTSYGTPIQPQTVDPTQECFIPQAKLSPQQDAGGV
T2 sequence (P07766 23-207, chain 1 of 3): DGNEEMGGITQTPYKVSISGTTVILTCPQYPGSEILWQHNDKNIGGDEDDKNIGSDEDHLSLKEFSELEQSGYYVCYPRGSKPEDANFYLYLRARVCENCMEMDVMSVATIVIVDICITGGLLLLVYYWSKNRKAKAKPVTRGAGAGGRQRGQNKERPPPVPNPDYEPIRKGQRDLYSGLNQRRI
T2 sequence (P04234 22-171, chain 2 of 3): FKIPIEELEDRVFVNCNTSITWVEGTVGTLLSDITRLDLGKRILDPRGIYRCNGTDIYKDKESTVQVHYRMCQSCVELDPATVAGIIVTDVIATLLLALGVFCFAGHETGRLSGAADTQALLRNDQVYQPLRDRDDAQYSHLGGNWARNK
T2 sequence (P09693 23-182, chain 3 of 3): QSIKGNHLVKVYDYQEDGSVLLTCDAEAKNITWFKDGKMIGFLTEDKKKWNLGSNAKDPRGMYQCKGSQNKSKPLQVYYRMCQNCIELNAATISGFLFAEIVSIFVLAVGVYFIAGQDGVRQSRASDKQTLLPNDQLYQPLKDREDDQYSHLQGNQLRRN

B1: Bis-40E9-L2H3-D99E.H (bispecific antibody)
heavy: EVQLVQSGAEVKKPGASVKVSCKASGYTFTSYVIHWVRQAPGQGLEWMGYFNPYNDGTKYNEEFKGRVTLTSDKSTSTAYMELRSLRSDDTAVYYCARGGVRRYFDVWGQGTTVTVSS
heavy (part 1 of 2): EVQLVQSGAEVKKPGASVKVSCKASGYTFTSYVIHWVRQAPGQGLEWMGYFNPYNDGTKYNEEFKGRVTLTSDKSTSTAYMELRSLRSDDTAVYYCARGGVRRYFDVWGQGTTVTVSS
heavy (part 2 of 2): GGGGSGGGGSEVQLVQSGAEVKKPGSSVKVSCKASGYTFSSYVIHWVRQAPGQCLEWMGYINPYNDVIKYNEKFKGRVTLTSDKSTSTAYMELSSLRSEDTAVYYCARESYYSYDGFAYWGQGTLVTVSSGGGGSGGGGSGGGGSGGGGSEIVLTQSPDFQSVTPKEKVTITCSASSSVSYMHWYQQKPDQSPKRLIYDTSKLASGVPSRFSGSGSGTDFTLTINSLEAEDAATYYCQQWSSNPPTFGCGTKVEIKGGGGSGGGGS
light: DIQMTQSPSSLSASVGDRVTITCRASQDIGSNLNWLQQKPGKAIKRLIYATFGLDSGVPSRFSGSRSGTDFTLTISSLQPEDFATYYCQQYASFPYTFGGGTKVEIK
notes: Fab-scFv-Fab (2+1), LALA; not shown: CH1; CL; CH2-CH3 with L234A, L235A; heavy chain constant region with L234A, L235A
Consider B1, for which, in assay [1], the “EC50 (nM), luciferase assay, L363” value is 0.19 nM; the “EC50 (nM), luciferase assay, MM.1S” value is 0.0719 nM; the “EC50 (nM), luciferase assay, MOLP-8” value worked out at 0.906 nM; the “EC50 (nM), luciferase assay, RPMI8226” value stood at 0.878 nM. Also, in assay [1], the “Top (RLU), luciferase assay, L363” value was 584 RLU; the “Top (RLU), luciferase assay, MM.1S” value is 1720 RLU; the “Top (RLU), luciferase assay, MOLP-8” value was 118 RLU; the “Top (RLU), luciferase assay, RPMI8226” value was determined as 113 RLU. In assay [2], the “IC50 (nM), T-Cell Dependent Cytotoxicity, MM.1S” value (“IC50 (nM) … MM.1S” below) stood at 0.0244 nM; the “IC50 (nM), T-Cell Dependent Cytotoxicity, MOLP-8” value (from here on “IC50 (nM) … MOLP-8”) stood at 0.00776 nM; the “IC50 (nM), T-Cell Dependent Cytotoxicity, RPMI8226” value (“IC50 (nM) … RPMI8226” below) was 0.406 nM; the “Top (%), T-Cell Dependent Cytotoxicity, MM.1S” value (“Top (%) … MM.1S” for short) worked out at 57.2%. Moreover, in assay [2], the “Top (%), T-Cell Dependent Cytotoxicity, MOLP-8” value (“Top (%) … MOLP-8” for short) is 68.7% and the “Top (%), T-Cell Dependent Cytotoxicity, RPMI8226” value (from here on “Top (%) … RPMI8226”) came to 13.4%. Further, in assay [3], the “MFI (50 µg/ml)” value stood at 128 MFI.

B2: Bis-40E9-L2H4 (bispecific antibody)
heavy: EVQLVQSGAEVKKPGASVKVSCKASGYTFTSYVIHWVRQAPGQGLEWMGYFNPYNDGTKYNEEFKGRVTLTSDKSTSTAYMELRSLRSDDTAVYYCARGGVRRYFDVWGQGTTVTVSS
heavy (part 1 of 2): EVQLVQSGAEVKKPGASVKVSCKASGYTFTSYVIHWVRQAPGQGLEWMGYFNPYNDGTKYNEEFKGRVTLTSDKSTSTAYMELRSLRSDDTAVYYCARGGVRRYFDVWGQGTTVTVSS
heavy (part 2 of 2): GGGGSGGGGSEVQLVQSGAEVKKPGSSVKVSCKASGYTFSSYVIHWVRQAPGQCLEWIGYINPYNDVIKYNEKFKGRATLTSDKSTSTAYMELSSLRSEDTAVYYCARDSYYSYDGFAYWGQGTLVTVSSGGGGSGGGGSGGGGSGGGGSEIVLTQSPDFQSVTPKEKVTITCSASSSVSYMHWYQQKPDQSPKRLIYDTSKLASGVPSRFSGSGSGTDFTLTINSLEAEDAATYYCQQWSSNPPTFGCGTKVEIKGGGGSGGGGS
light: DIQMTQSPSSLSASVGDRVTITCRASQDIGSNLNWLQQKPGKAIKRLIYATFGLDSGVPSRFSGSRSGTDFTLTISSLQPEDFATYYCQQYASFPYTFGGGTKVEIK
notes: as for B1
Regarding B2, in assay [1], the “EC50 (nM), luciferase assay, L363” value was determined as 0.206 nM; the “EC50 (nM), luciferase assay, MM.1S” value came out at 0.0592 nM; the “EC50 (nM), luciferase assay, MOLP-8” value is 0.000513 nM; the “Top (RLU), luciferase assay, L363” value stood at 1430 RLU. Besides, in assay [1], the “Top (RLU), luciferase assay, MM.1S” value was 1700 RLU and the “Top (RLU), luciferase assay, MOLP-8” value turned out to be 213 RLU. In assay [2], the “IC50 (nM) … MM.1S” value was determined as 0.0125 nM; the “IC50 (nM) … MOLP-8” value was determined as 0.00239 nM; the “IC50 (nM) … RPMI8226” value is 0.381 nM; the “Top (%) … MM.1S” value was 69%. Besides, in assay [2], the “Top (%) … MOLP-8” value came out at 63.9% and the “Top (%) … RPMI8226” value came out at 20.4%. Moreover, the “MFI (50 µg/ml)” value in assay [3] came to 328 MFI.

B3: Bis-40E9-L2H3-G106A.H (bispecific antibody)
heavy: EVQLVQSGAEVKKPGASVKVSCKASGYTFTSYVIHWVRQAPGQGLEWMGYFNPYNDGTKYNEEFKGRVTLTSDKSTSTAYMELRSLRSDDTAVYYCARGGVRRYFDVWGQGTTVTVSS
heavy (part 1 of 2): EVQLVQSGAEVKKPGASVKVSCKASGYTFTSYVIHWVRQAPGQGLEWMGYFNPYNDGTKYNEEFKGRVTLTSDKSTSTAYMELRSLRSDDTAVYYCARGGVRRYFDVWGQGTTVTVSS
heavy (part 2 of 2): GGGGSGGGGSEVQLVQSGAEVKKPGSSVKVSCKASGYTFSSYVIHWVRQAPGQCLEWMGYINPYNDVIKYNEKFKGRVTLTSDKSTSTAYMELSSLRSEDTAVYYCARDSYYSYDAFAYWGQGTLVTVSSGGGGSGGGGSGGGGSGGGGSEIVLTQSPDFQSVTPKEKVTITCSASSSVSYMHWYQQKPDQSPKRLIYDTSKLASGVPSRFSGSGSGTDFTLTINSLEAEDAATYYCQQWSSNPPTFGCGTKVEIKGGGGSGGGGS
light: DIQMTQSPSSLSASVGDRVTITCRASQDIGSNLNWLQQKPGKAIKRLIYATFGLDSGVPSRFSGSRSGTDFTLTISSLQPEDFATYYCQQYASFPYTFGGGTKVEIK
notes: as for B1
In the case of B3, in assay [1], the “EC50 (nM), luciferase assay, L363” value worked out at 0.187 nM; the “EC50 (nM), luciferase assay, MM.1S” value turned out to be 0.268 nM; the “EC50 (nM), luciferase assay, MOLP-8” value is 0.116 nM; the “EC50 (nM), luciferase assay, RPMI8226” value worked out at 1.58 nM. In addition, in assay [1], the “Top (RLU), luciferase assay, L363” value is 277 RLU; the “Top (RLU), luciferase assay, MM.1S” value came to 2910 RLU; the “Top (RLU), luciferase assay, MOLP-8” value came out at 262 RLU; the “Top (RLU), luciferase assay, RPMI8226” value came to 101 RLU. For the same molecule, in assay [2], the “IC50 (nM) … MM.1S” value stood at 0.057 nM; the “IC50 (nM) … MOLP-8” value was found to be 0.0068 nM; the “IC50 (nM) … RPMI8226” value came to 4.04 nM; the “Top (%) … MM.1S” value stood at 67.4%. Also, in assay [2], the “Top (%) … MOLP-8” value was 54.3% and the “Top (%) … RPMI8226” value turned out to be 5.69%. In addition, in assay [3], the “MFI (50 µg/ml)” value is 114 MFI.

B4: Bis-40E9-L3H1 (bispecific antibody)
heavy: EVQLVQSGAEVKKPGASVKVSCKASGYTFTSYVIHWVRQAPGQGLEWMGYFNPYNDGTKYNEEFKGRVTLTSDKSTSTAYMELRSLRSDDTAVYYCARGGVRRYFDVWGQGTTVTVSS
heavy (part 1 of 2): EVQLVQSGAEVKKPGASVKVSCKASGYTFTSYVIHWVRQAPGQGLEWMGYFNPYNDGTKYNEEFKGRVTLTSDKSTSTAYMELRSLRSDDTAVYYCARGGVRRYFDVWGQGTTVTVSS
heavy (part 2 of 2): GGGGSGGGGSEVQLVQSGAEVKKPGSSVKVSCKASGGTFSSYVIHWVRQAPGQCLEWMGYINPYNDVIKYNEKFKGRVTITADKSTSTAYMELSSLRSEDTAVYYCARDSYYSYDGFAYWGQGTLVTVSSGGGGSGGGGSGGGGSGGGGSEIVLTQSPDFQSVTPKEKVTITCSASSSVSYMHWYQQKPDQSPKRWIYDTSKLASGVPSRFSGSGSGTDYTLTINSLEAEDAATYYCQQWSSNPPTFGCGTKVEIKGGGGSGGGGS
light: DIQMTQSPSSLSASVGDRVTITCRASQDIGSNLNWLQQKPGKAIKRLIYATFGLDSGVPSRFSGSRSGTDFTLTISSLQPEDFATYYCQQYASFPYTFGGGTKVEIK
notes: as for B1
Consider B4, for which, in assay [1], the “EC50 (nM), luciferase assay, L363” value stood at 1.71 nM; the “EC50 (nM), luciferase assay, MM.1S” value came out at 0.0332 nM; the “EC50 (nM), luciferase assay, MOLP-8” value is 0.072 nM; the “Top (RLU), luciferase assay, L363” value came out at 2760 RLU. Further, in assay [1], the “Top (RLU), luciferase assay, MM.1S” value was determined as 1710 RLU and the “Top (RLU), luciferase assay, MOLP-8” value worked out at 150 RLU. In assay [2], the “IC50 (nM) … MM.1S” value came to 0.0203 nM; the “IC50 (nM) … MOLP-8” value amounted to 0.00244 nM; the “IC50 (nM) … RPMI8226” value worked out at 0.292 nM; the “Top (%) … MM.1S” value worked out at 74.9%. Also, in assay [2], the “Top (%) … MOLP-8” value came to 68.3% and the “Top (%) … RPMI8226” value stood at 13.6%. Also, the “MFI (50 µg/ml)” value in assay [3] was determined as 142 MFI.
